Earlier results as cited in article PMC2646799.

Molecular target: histone H3 acetyl-K9 peptide (Homo sapiens) (UniProt P68431)

Kd: 1 µM
Substance: Polybromo-1 BrD3 (from UniProt Q86U86)
